“And” between values parts separate entries of the source, which are not always exact repeats. Identical values can stand only once. Like-named read-outs stand apart in the source and are kept apart here.
T1: Recombinant Human TRANCE/RANKL/TNFSF 11 (human, UniProt O14788 69-317)
T1 construct: extracellular domain
T1 sequence (looked up): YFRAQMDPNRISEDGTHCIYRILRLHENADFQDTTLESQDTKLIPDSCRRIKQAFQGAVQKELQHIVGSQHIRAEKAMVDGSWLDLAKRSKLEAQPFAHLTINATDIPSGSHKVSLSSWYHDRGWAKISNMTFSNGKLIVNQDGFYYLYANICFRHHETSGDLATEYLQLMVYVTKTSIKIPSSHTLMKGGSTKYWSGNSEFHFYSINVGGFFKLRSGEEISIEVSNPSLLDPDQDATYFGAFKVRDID

T2: IL-1α (UniProt P01583 113-271)
T2 construct: also called IL-1alpha; IL-1a
T2 sequence (looked up): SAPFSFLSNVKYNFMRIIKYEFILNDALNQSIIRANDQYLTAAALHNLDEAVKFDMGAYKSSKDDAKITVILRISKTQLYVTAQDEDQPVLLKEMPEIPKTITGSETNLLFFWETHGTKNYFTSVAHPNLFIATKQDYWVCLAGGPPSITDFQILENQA


Columns and labels:
Recombinant Human IL-1β [1] = biological target: T3, Recombinant Human IL-1β (human, UniProt P01584 117-269); experiment: direct bind ELISA
T3 construct: also called IL-1b; IL-1B

Recombinant Human IL-1β [2] = biological target: T3, Recombinant Human IL-1β; experiment: Biacore SPR
Experimental: (§1) The BIACORE assay (Biacore, Inc, Piscataway, N.J.) determines the affinity of antibodies or DVD-Ig with kinetic measurements of on-rate and off-rate constants. Binding of antibodies or DVD-Ig to a target antigen (for example, a purified recombinant target antigen) is determined by surface plasmon resonance-based measurements with a BiacoreR 1000 or 3000 instrument (Biacore® AB, Uppsala, Sweden) using running HBS-EP (10 mM HEPES [pH 7.4], 150 mM NaCl, 3 mM EDTA, and 0.005% surfactant P20) at 25° C. All chemicals are obtained from Biacore® AB (Uppsala, Sweden) or otherwise from a different source as described in the text. For example, approximately 5000 RU of goat anti-mouse IgG, (Fcγ), fragment specific polyclonal antibody (Pierce Biotechnology Inc, Rockford, Ill.) diluted in 10 mM sodium acetate (pH 4.5) is directly immobilized across a CM5 research grade biosensor chip using a standard amine coupling kit according to manufacturer's instructions and procedures at 25 μg/ml. Unreacted moieties on the biosensor surface are blocked with ethanolamine. Modified carboxymethyl dextran surface in flowcell 2 and 4 is used as a reaction surface. Unmodified carboxymethyl dextran without goat anti-mouse IgG in flow cell 1 and 3 is used as the reference surface. For kinetic analysis, rate equations derived from the 1:1 Langmuir binding model are fitted simultaneously to association and dissociation phases of all eight injections (using global fit analysis) with the use of Biaevaluation 4.0.1 software. Purified antibodies or DVD-Ig are diluted in HEPES-buffered saline for capture across goat anti-mouse IgG specific reaction surfaces. Antibodies or DVD-Ig to be captured as a ligand (25 μg/ml) are injected over reaction matrices at a flow rate of 5 μl/min. The association and dissociation rate constants, kₒₙ (M⁻¹s⁻¹) and koff (s⁻¹) are determined under a continuous flow rate of 25 μl/min. Rate constants are derived by making kinetic binding measurements at different antigen concentrations ranging from […]. The equilibrium dissociation constant (M) of the reaction between antibodies or DVD-Igs and the target antigen is then calculated from the kinetic rate constants by the following formula: KD=koff/kₒₙ. Binding is recorded as a function of time and kinetic rate constants are calculated.

Recombinant Human IL-1β [3] = biological target: T3, Recombinant Human IL-1β; experiment: direct bind ELISA; remark: listed apart in the source
Experimental: (§2) Enzyme Linked Immunosorbent Assays to screen for antibodies that bind a desired target antigen were performed as follows. High bind ELISA plates (Corning Costar # 3369, Acton, Mass.) were coated with 100 μL/well of 10 μg/ml of desired target antigen (R&D Systems, Minneapolis, Minn.) or desired target antigen extra-cellular domain/FC fusion protein (R&D Systems, Minneapolis, Minn.) or monoclonal mouse anti-polyhistidine antibody (R&D Systems # MAB050, Minneapolis, Minn.) in phosphate buffered saline (10×PBS, Abbott Bioresearch Center, Media Prep# MPS-073, Worcester, Mass.) overnight at 4° C. Plates were washed four times with PBS containing 0.02% Tween 20. Plates were blocked by the addition of 300 μL/well blocking solution (non-fat dry milk powder, various retail suppliers, diluted to 2% in PBS) for ½ hour at room temperature. Plates were washed four times after blocking with PBS containing 0.02% Tween 20.
(§3) Plates were washed 4 times with PBS containing 0.02% Tween 20.
(§4) One hundred microliters of enhanced TMB solution (Neogen Corp. #308177, K Blue, Lexington, Ky.) was added to each well and incubated for 10 minutes at room temperature. The reaction was stopped by the addition of 50 μL 1N sulphuric acid. Plates were read spectrophotometrically at a wavelength of 450 nm.

Recombinant Human IL-1β [4] = biological target: T3, Recombinant Human IL-1β; experiment: cell-based or functional assay
[5] = biological target: T1, Recombinant Human TRANCE/RANKL/TNFSF 11; experiment: Biacore SPR
Experimental: as §1

[6] = biological target: T1, Recombinant Human TRANCE/RANKL/TNFSF 11; experiment: direct bind ELISA
Experimental: as §2, §3, §4

IL-1α = biological target: T2, IL-1α; experiment: direct bind ELISA

Binder	EC50 (Recombinant Human IL-1β [1]) [nM]	EC50 (IL-1α) [nM]	further results
DVD125 (bispecific antibody, human IgG1, kappa, outer AB032, inner AB018; vectors V1, V2) heavy: not shown light: EIVLTQSPDFQSVTPKEKVTITCRASQSIGSSLHWYQQKPDQSPKLLIKYASQSFSGVPSRFSGSGSGTDFTLTINSLEAEDAAAYYCHQSSSLPFTFGPGTKVDIKRTVAAPEIVLTQSPGTLSLSPGERATLSCRASQSVRGRYLAWYQQKPGQAPRLLIYGASSRATGIPDRFSGSGSGTDFTLTISRLEPEDFAVFYCQQYGSSPRTFGQGTKVEIKRTVAAPSVFIFPPSDEQLKSGTASVVCLLNNFYPREAKVQWKVDNALQSGNSQESVTEQDSKDSTYSLSSTLTLSKADYEKHKVYACEVTHQGLSSPVTKSFNRGEC	–	–	IL-1β Neutralization Assay EC50 (MRC5 cells, hIL-8) (Recombinant Human IL-1β [4]): 0.043 nM; Kd (Recombinant Human IL-1β [2]): 0.0829 nM; koff (Recombinant Human IL-1β [2]): 0.000107 s⁻¹; kon (Recombinant Human IL-1β [2]): 1.29e+06 M⁻¹ s⁻¹; Kd [5]: 3.5 nM; koff [5]: 7.45e-05 s⁻¹; kon [5]: 21200 M⁻¹ s⁻¹; EC50 (Recombinant Human IL-1β [3]): 4.36 nM; EC50 [6]: 2.89 nM
DVD377 (bispecific antibody, human IgG1, kappa, vectors V1, V2) heavy: not shown light: DIQMTQSPSSVSASVGDRVTITCRASQGISSWLAWYQQKPGKAPKLLIYEASNLETGVPSRFSGSGSGSDFTLTISSLQPEDFATYYCQQTSSFLLSFGGGTKVEHKRTVAAPEIVLTQSPDFQSVTPKEKVTITCRASQSIGSSLHWYQQKPDQSPKLLIKYASQSFSGVPSRFSGSGSGTDFTLTINSLEAEDAAAYYCHQSSSLPFTFGPGTKVDIKRTVAAPSVFIFPPSDEQLKSGTASVVCLLNNFYPREAKVQWKVDNALQSGNSQESVTEQDSKDSTYSLSSTLTLSKADYEKHKVYACEVTHQGLSSPVTKSFNRGEC	165	143	–
DVD383 (bispecific antibody, human IgG1, kappa, vectors V1, V2) heavy: not shown light: DIQMTQSPSSVSASVGDRVTITCRASQGISSWLAWYQQKPGKAPKLLIYEASNLETGVPSRFSGSGSGSDFTLTISSLQPEDFATYYCQQTSSFLLSFGGGTKVEHKRTVAAPSVFIFPPDIQMTQSPSSLSASVGDRVTITCRASGNIHNYLTWYQQTPGKAPKLLIYNAKTLADGVPSRFSGSGSGTDYTFTISSLQPEDIATYYCQHFWSIPYTFGQGTKLQITTVAAPSVFIFPPSDEQLKSGTASVVCLLNNFYPREAKVQWKVDNALQSGNSQESVTEQDSKDSTYSLSSTLTLSKADYEKHKVYACEVTHQGLSSPVTKSFNRGEC	2620	–	–
DVD166 (bispecific antibody, human IgG1, kappa, vectors V1, V2; also called RANKL and CD-20 DVD-Ig) heavy: not shown light: EIVLTQSPGTLSLSPGERATLSCRASQSVRGRYLAWYQQKPGQAPRLLIYGASSRATGIPDRFSGSGSGTDFTLTISRLEPEDFAVFYCQQYGSSPRTFGQGTKVEIKRTVAAPQIVLSQSPAILSPSPGEKVTMTCRASSSVSYIHWFQQKPGSSPKPWIYATSNLASGVPVRFSGSGSGTSYSLTISRVEAEDAATYYCQQWTSNPPTFGGGTKLEIKRTVAAPSVFIFPPSDEQLKSGTASVVCLLNNFYPREAKVQWKVDNALQSGNSQESVTEQDSKDSTYSLSSTLTLSKADYEKHKVYACEVTHQGLSSPVTKSFNRGEC	–	–	EC50 [6]: 0.12 nM
DVD382 (bispecific antibody, human IgG1, kappa, vectors V1, V2) heavy: not shown light: EIVLTQSPDFQSVTPKEKVTITCRASQSIGSSLHWYQQKPDQSPKLLIKYASQSFSGVPSRFSGSGSGTDFTLTINSLEAEDAAAYYCHQSSSLPFTFGPGTKVDIKRTVAAPSVFIFPPDIQMTQSPSSVSASVGDRVTITCRASQGISSWLAWYQQKPGKAPKLLIYEASNLETGVPSRFSGSGSGSDFTLTISSLQPEDFATYYCQQTSSFLLSFGGGTKVEHKRTVAAPSVFIFPPSDEQLKSGTASVVCLLNNFYPREAKVQWKVDNALQSGNSQESVTEQDSKDSTYSLSSTLTLSKADYEKHKVYACEVTHQGLSSPVTKSFNRGEC	6.52	4.61	–
DVD381 (bispecific antibody, human IgG1, kappa, vectors V1, V2) heavy: not shown light: DIQMTQSPSSVSASVGDRVTITCRASQGISSWLAWYQQKPGKAPKLLIYEASNLETGVPSRFSGSGSGSDFTLTISSLQPEDFATYYCQQTSSFLLSFGGGTKVEHKRTVAAPSVFIFPPEIVLTQSPDFQSVTPKEKVTITCRASQSIGSSLHWYQQKPDQSPKLLIKYASQSFSGVPSRFSGSGSGTDFTLTINSLEAEDAAAYYCHQSSSLPFTFGPGTKVDIKRTVAAPSVFIFPPSDEQLKSGTASVVCLLNNFYPREAKVQWKVDNALQSGNSQESVTEQDSKDSTYSLSSTLTLSKADYEKHKVYACEVTHQGLSSPVTKSFNRGEC	500	965	–
DVD379 (bispecific antibody, human IgG1, kappa, vectors V1, V2) heavy: not shown light: DIQMTQSPSSVSASVGDRVTITCRASQGISSWLAWYQQKPGKAPKLLIYEASNLETGVPSRFSGSGSGSDFTLTISSLQPEDFATYYCQQTSSFLLSFGGGTKVEHKRTVAAPDIQMTQSPSSLSASVGDRVTITCRASGNIHNYLTWYQQTPGKAPKLLIYNAKTLADGVPSRFSGSGSGTDYTFTISSLQPEDIATYYCQHFWSIPYTFGQGTKLQITTVAAPSVFIFPPSDEQLKSGTASVVCLLNNFYPREAKVQWKVDNALQSGNSQESVTEQDSKDSTYSLSSTLTLSKADYEKHKVYACEVTHQGLSSPVTKSFNRGEC	150	–	–

Second part, led by results:

EC50 (Recombinant Human IL-1β [1]) [nM]	EC50 (IL-1α) [nM]	Binder	further results
0.91	–	AB032 (antibody, human IgG1, kappa, V domains shown, vectors V1 and V2) VH: QVQLVESGGGVVQPGRSLRLSCAASGFTFSVYGMNWVRQAPGKGLEWVAIIWYDGDNQYYADSVKGRFTISRDNSKNTLYLQMNGLRAEDTAVYYCARDLRTGPFDYWGQGTLVTVSS VL: EIVLTQSPDFQSVTPKEKVTITCRASQSIGSSLHWYQQKPDQSPKLLIKYASQSFSGVPSRFSGSGSGTDFTLTINSLEAEDAAAYYCHQSSSLPFTFGPGTKVDIKR	Kd (Recombinant Human IL-1β [2]): 0.0131 nM; EC50 (Recombinant Human IL-1β [3]): 2.61 nM and 5.27 nM
6.47	8.78	DVD374 (bispecific antibody, human IgG1, kappa, vectors V1, V2) heavy: not shown light: EIVLTQSPDFQSVTPKEKVTITCRASQSIGSSLHWYQQKPDQSPKLLIKYASQSFSGVPSRFSGSGSGTDFTLTINSLEAEDAAAYYCHQSSSLPFTFGPGTKVDIKRTVAAPSVFIFPPDIQMTQSPSSVSASVGDRVTITCRASQGISSWLAWYQQKPGKAPKLLIYEASNLETGVPSRFSGSGSGSDFTLTISSLQPEDFATYYCQQTSSFLLSFGGGTKVEHKRTVAAPSVFIFPPSDEQLKSGTASVVCLLNNFYPREAKVQWKVDNALQSGNSQESVTEQDSKDSTYSLSSTLTLSKADYEKHKVYACEVTHQGLSSPVTKSFNRGEC	–
1.89	2.86	DVD378 (bispecific antibody, human IgG1, kappa, vectors V1, V2) heavy: not shown light: EIVLTQSPDFQSVTPKEKVTITCRASQSIGSSLHWYQQKPDQSPKLLIKYASQSFSGVPSRFSGSGSGTDFTLTINSLEAEDAAAYYCHQSSSLPFTFGPGTKVDIKRTVAAPDIQMTQSPSSVSASVGDRVTITCRASQGISSWLAWYQQKPGKAPKLLIYEASNLETGVPSRFSGSGSGSDFTLTISSLQPEDFATYYCQQTSSFLLSFGGGTKVEHKRTVAAPSVFIFPPSDEQLKSGTASVVCLLNNFYPREAKVQWKVDNALQSGNSQESVTEQDSKDSTYSLSSTLTLSKADYEKHKVYACEVTHQGLSSPVTKSFNRGEC	–

Reference: patent US20090311253A1 (AbbVie / Abbott, published 2009)
